# T1: JNKK1/MKK4 (Mus musculus, UniProt P47809)
# T1 construct: expressed in transfected cells; host or cells: HEK-293; anti-FLAG immunoprecipitate
# T1 sequence (P47809 2-397): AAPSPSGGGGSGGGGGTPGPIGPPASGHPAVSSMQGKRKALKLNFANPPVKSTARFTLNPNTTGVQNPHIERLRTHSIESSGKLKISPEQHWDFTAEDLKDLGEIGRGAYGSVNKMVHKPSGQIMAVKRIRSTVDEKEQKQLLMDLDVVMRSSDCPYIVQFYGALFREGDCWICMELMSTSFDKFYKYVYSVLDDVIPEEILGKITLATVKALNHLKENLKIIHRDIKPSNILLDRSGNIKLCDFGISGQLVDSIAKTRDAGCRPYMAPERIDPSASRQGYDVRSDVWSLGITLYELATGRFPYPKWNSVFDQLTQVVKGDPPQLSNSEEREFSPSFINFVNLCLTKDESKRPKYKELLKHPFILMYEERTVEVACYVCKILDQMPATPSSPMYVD
# B1: Gadd45β: purified recombinant His6-tagged Gadd45β protein; also used generically for the recombinant Gadd45β proteins (protein, UniProt O75293 1-160, looked up)
# Growth arrest and DNA …: MTLEELVACDNAAQKMQTVTAAVEELLVAAQRQDRLTVGVYESAKLMNVDPDSVVLCLLAIDEEEEDDIALQIHFTLIQSFCCDNDINIVRVSGMQRLAQLLGEPAETQGTTEARDLHCLLVTNPHTDAWKSHGLVEVASYCEESRGNNQWVPYISLQER
# modifications: His6 tag
# notes: purified recombinant His6-tagged Gadd45β protein; also used generically for the recombinant Gadd45β proteins
# B2: His6-Gadd45β: human full-length Gadd45β purified from E. coli as His6-tagged protein (protein, UniProt O75293 1-160, looked up)
# chain: MTLEELVACDNAAQKMQTVTAAVEELLVAAQRQDRLTVGVYESAKLMNVDPDSVVLCLLAIDEEEEDDIALQIHFTLIQSFCCDNDINIVRVSGMQRLAQLLGEPAETQGTTEARDLHCLLVTNPHTDAWKSHGLVEVASYCEESRGNNQWVPYISLQER
# modifications: full-length His6 tag
# notes: human full-length Gadd45β purified from E. coli as His6-tagged protein
# B3: GST-Gadd45β: full-length murine Gadd45β directly fused to GST, purified from E. coli (protein)
# chain: MTLEELVASDNAVQKMQAVTAAVEQLLVAAQRQDRLTVGVYEAAKLMNVDPDSVVLCLLAIDEEEEDDIALQIHFTLIQSFCCDNDIDIVRVSGMQRLAQLLGEPAETLGTTEARDLHCLLVTNCHTDSWKSQGLVEVASYCEESRGNNQWVPYISLEER
# modifications: left off: a dimerising Fc or GST
# notes: full-length murine Gadd45β directly fused to GST, purified from E. coli
# Target: T1, JNKK1/MKK4
# Assay: Kinase assay of immunoprecipitated FLAG-JNKK1/MKK4 with recombinant Gadd45β proteins
# Format: biochemical
# Details: in vitro, even at high concentrations
# Procedure: Next, the functional consequences, in vitro, of the physical interactions of Gadd45β with kinases in the JNK pathway were assessed. Murine and human, full-length Gadd45J3 proteins were purified from E. coli as GST-Gadd45β and His6-tagged Gadd45β (His6 disclosed as SEQ ID NO: 46), respectively, according to standard procedures. Prior to employing these proteins in in vitro assays, purity of all recombinant polypeptides was assured by >98%, by performing Coomassie blue staining of SDS polyacrylamide gels. Then, the ability of these proteins, as well as of control GST and His6-EF3 (His6 disclosed as SEQ ID NO: 46)proteins, to inhibit kinases in the JNK pathways was monitored in vitro. FLAG-tagged JNKK2, JNKK1, MKK3, and ASK1 were immunoprecipitated from transiently transfected 293 cells using anti-FLAG antibodies and pre-incubated for 10 minutes with increasing concentrations of recombinant proteins, prior to the addition of specific kinase substrates (i.e. GST-JNK1 with JNKK1 and JNKK2; GST-p38[…] with MKK3; GST-JNNK1 or GST-JNKK2 with ASK1). […] These findings indicate that, upon binding to Gadd45β, JNKK2 is effectively inactivated.
# A question was whether Gadd45β inhibited active MKK7, in vitro. FLAG-MKK7 was immunoprecipitated from TNFα-treated or untreated 293 cells, and kinase assays were performed in the presence of purified His6-Gadd45β (His6 disclosed as SEQ ID NO: 46), GST-Gadd45β, or control proteins (FIG. 28d; see also FIG. 28g). […] Consistent with the in vivo findings (FIG. 27), the inhibitory activity of Gadd45β was specific. […] Indeed, the effects of Gadd45β on MKK7 phosphorylation by TNFα may be due inhibition of the MKK7 ability to auto-phoshorylate and/or to serve as substrate for upstream kinases. Altogether, the findings identify MKK7 as a target of Gadd45β, and of NF-[…]B, in the JNK cascade. Of interest, MKK7 is a selective activator of JNK, and its ablation abolishes JNK activation by TNFα. Thus, blockade of MKK7 is sufficient on its own to explain the effects of Gadd45β on JNK signaling—i.e. its specific and near-complete suppression of this signaling. […]
row,Molecule,effect on JNKK1/MKK4 kinase activity
1,B1,did not hamper
2,B2,neither GST-Gadd45β nor His6-Gadd45β (His6 disclosed as SEQ ID NO: 46) had significant effects
3,B3,neither GST-Gadd45β nor His6-Gadd45β (His6 disclosed as SEQ ID NO: 46) had significant effects
